Measurements taken from patent US8058396B2, “Cystatin C as an antagonist of TGF-β and methods related thereto” (National Jewish Health, priority 2003, dated 2011).

Assays:
3T3-L1 fibroblasts = experiment: 3T3-L1 cell invasion through Matrigel matrices; type: cell-based, murine; details: retroviral expression in 3T3-L1 cells, 48 hr; for serum-stimulated (tonic) 3T3-L1 cell invasion: relative to GFP-expressing cells; for TGF-β1-stimulated 3T3-L1 cell invasion: TGF-β1 5 ng/ml, p<0.05
Protocol: The effect CystC and D14CystC on the invasion of HT1080 and 3T3-L1 cells was determined as described previously (42). Briefly, upper chambers were coated with 100 μl of diluted Matrigel (1:50 in serum-free media), which was allowed to evaporate to dryness overnight at room temperature. The following morning the Matrigel mixtures were rehydrated and subsequently cultured with control-, CystC-, or D14CystC-expressing HT1080 or 3T3-L1 cells at a density of 100,000 cells/chamber. Cellular invasion was stimulated by addition of 2% serum to the lower chambers. Forty-eight hr later, the cells were washed twice in ice-cold PBS and immediately fixed for 15 min with 95% ethanol. Cells remaining in the upper chambers were removed with a cotton swab, whereas those remaining in the lower chamber were stained with crystal violet. Quantifying invading cells was determined through two independent measures, which yielded identical results: (i) manual counting under a light microscope, and (ii) crystal violet dye extraction by incubation of the membranes in 10% acetic acid, followed by spectrophotometry at 590 nm.
In some experiments, the effects of recombinant CystC and D14CystC on 3T3-L1 cell invasion was examined. To do so, 3T3-L1 cells (100,000 cells/chamber) were allowed to invade through Matrigel […], together with or without 5 ng/ml of TGF-β1. All subsequent procedures were performed as described above.
GFP-, CystC-, or Δ14CystC-expressing 3T3-L1 cells were allowed to invade through Matrigel-coated filters in the absence or presence of TGF-β1 (5 ng/ml) for 48 hr, and the results are shown in FIG. 2A. […] Data are the mean (±SE) of four independent experiments presented as the percent invasion relative to GFP-expressing 3T3-L1 cells.
Moreover, the inhibitory effects of CystC on 3T3-L1 cell invasion could be recapitulated by addition of recombinant CystC fusion proteins. Control or TGF-β1-stimulated (5 ng/ml) 3T3-L1 cells were allowed to invade through Matrigel-coated filters for 48 hr in the absence or presence of recombinant (10 mg/ml) GST, GST-CystC, or GST-D14CystC as indicated in FIG. 2B. […] Data are the mean (±SE) of three independent experiments presented as the percent invasion relative to untreated 3T3-L1 cells. […] Collectively, these findings indicate that 3T3-L1 cell invasion proceeds through cathepsin B-dependent and TGF-β-dependent pathways.

HT1080 cells = experiment: DNA synthesis in HT1080 cells; type: cell-based, human; details: overexpression in HT1080 cells; data not shown
TGF-β signaling = experiment: p3TP-luciferase reporter gene assay in HT1080 cells; type: cell-based, human; details: expression in HT1080 cells; TGF-β1 0-5 ng/ml
Protocol: Analysis of luciferase activity driven by the synthetic p3TP reporter ((26); generously provided by Dr. Joan Massague, Sloan Kettering) was performed as described previously (42). Briefly, control, CystC-, or Δ14CystC-expressing 3T3-L1 or HT1080 cells were cultured onto 24-well plates at a density of 45,000 cells/well and allowed to adhere overnight. The cells were transiently transfected the following morning by overnight exposure to LT1 liposomes (Mirus) containing 300 ng/well p3TP-luciferase and 100 ng/well of pCMV-β-gal. Afterward, the cells were washed twice with PBS and stimulated overnight in serum-free media with increasing concentrations of TGF-β1 as indicated. The following morning, luciferase and β-gal activities contained in detergent-solubilized cell extracts were determined.
The inventor therefore hypothesized that CystC expression might impact TGF-β signaling via a cathepsin B-dependent mechanism. To test this hypothesis, changes in luciferase expression driven by the synthetic p3TP-luciferase reporter gene (26) were measured in control- and CystC-expressing HT1080 cells. Briefly, GFP-, CystC-, or Δ14CystC-expressing HT0180 cells were transiently transfected with p3TP-luciferase and pCMV-β-gal. The transfectants were stimulated with increasing concentrations of TGF-β1 (0-5 ng/ml) as indicated, and subsequently processed to measure luciferase and β-gal activities. […]

NRK kidney fibroblasts = experiment: Soft agar assay, anchorage-independent growth of NRK cells; type: cell-based, rat; details: retroviral-mediated expression in NRK cells; TGF-β1 5 ng/ml; 7 d
Protocol: The growth of NRK cells in soft agar was performed according to the procedures described in (Moustakas et al., 1999). Briefly, duplicate cultures of control-, CystC-, or Δ14CystC-expressing NRK cells (10,000 cells/plate) were grown in 0.3% agar on a cushion of 0.6% agar in 35-mm plates. NRK cell growth in the absence or presence of TGF-β1 (5 ng/ml) was allowed to proceed for 7 d, whereupon the number of colonies formed was quantified under a light microscope.
This hypothesis was tested by infecting NRK cells with bicistronic retrovirus encoding either CystC or Δ14CystC to determine their effects on NRK anchorage-independent growth stimulated by TGF-β. Briefly, rat NRK kidney fibroblasts were infected with control (i.e., pMSCV-IRES-GFP), CystC, or Δ14CystC retroviral supernatants, and the resulting infected cells were isolated by GFP fluorescence on a MoFlo cell sorter 48 hours later. Control, CystC-, and Δ14CystC-expressing NRK cells were cultured in soft-agar in the absence or presence of TGF-β1 (5 ng/ml) for 7 d, whereupon NRK colony formation was quantified by light microscopy. In addition, control, CystC-, and Δ14CystC-expressing NRK cells were allowed to invade through Matrigel matrices in the absence or presence of TGF-β1 (5 ng/ml) for 48 hours.

NMuMG cells = experiment: NMuMG cell invasion through Matrigel matrices; type: cell-based, murine; details: expression in NMuMG cells, 48 hours, p<0.05; for TGF-β1-enhanced NMuMG cell invasion: TGF-β1 5 ng/ml
Protocol: In another experiment, NMuMG cells were infected with ecotropic retrovirus encoding either GFP (i.e., control), CystC, or Δ14CystC, and subsequently were isolated by FACS-sorting for GFP expression to yield stable polyclonal populations of control, CystC, and Δ14CystC-expressing cells. The expression and secretion of recombinant CystC proteins by infected NMuMG and NRK cells was monitored by immunoblotting conditioned-media with anti-CystC antibodies. The same cells were incubated in the absence or presence of TGF-β1 (5 ng/ml) for 8 hours, whereupon alterations in actin cytoskeletal architecture was visualized by direct rhodamine-phalloidin immunofluorescence. Next, the control, CystC-, and Δ14CystC-expressing NMuMG cells were incubated in the absence or presence of TGF-β1 (5 ng/ml) for 36 hours, whereupon E-cadherin expression was monitored by immunoblotting with anti-E-Cadherin antibodies. Finally, control, CystC-, and Δ14CystC-expressing NMuMG cells were allowed to invade through Matrigel matrices in the absence or presence of TGF-β1 (5 ng/ml) for 48 hours.

Molecule | serum-stimulated (tonic) 3T3-L1 cell invasion (3T3-L1 fibroblasts) | TGF-β1-stimulated 3T3-L1 cell invasion (3T3-L1 fibroblasts) | synthesis of DNA in HT1080 cells (HT1080 cells) | TGF-β-stimulated luciferase activity driven by the p3TP promoter (TGF-β signaling) | morphological transformation (soft agar colony formation) stimulated by TGF-β (NRK kidney fibroblasts) | TGF-β1-enhanced NMuMG cell invasion (NMuMG cells) | tonic NMuMG cell invasion (NMuMG cells)
Δ14CystC: human CystC with deletion of positions 80 to 93 (conserved cysteine proteinase inhibitor motif), retrovirally expressed and secreted (protein, left off: small tags and cut ends) MAGPLRAPLLLLAILAVALAVSPAAGSSPGKPPRLVGGPMDASVEEEGVRRALDFAVGEYNKASNDMYHSRALQVVRARLGRTTCTKTQPNLDNCPFHDQPHLKRKAFCSFQIYAVPWQGTMTLSKSTCQDA | unaffected | significantly inhibited | failed to effect | equally effective as CystC | completely prevented | inhibited significantly | –
CystC: full-length human Cystatin C (SEQ ID NO:2), C-terminally Myc- and (His)6-tagged, retrovirally expressed and secreted by the cells (protein, listed as Homo sapiens, C-terminal Myc and His6 tags) MAGPLRAPLLLLAILAVALAVSPAAGSSPGKPPRLVGGPMDASVEEEGVRRALDFAVGEYNKASNDMYHSRALQVVRARKQIVAGVNYFLDVELGRTTCTKTQPNLDNCPFHDQPHLKRKAFCSFQIYAVPWQGTMTLSKSTCQDA | inhibited significantly | significantly inhibited | failed to effect | significantly inhibited | completely prevented | inhibited significantly | significantly inhibited
